Test results taken from US7183387 (Genentech, dated 2007).
Substitutions are numbered along the chain they refer to. Names may count otherwise. Blank lines part the entries; values can stand above or below the binder they belong to.

Experiments:
[1] = biological target: T1, human FcγRIIB α subunit extracellular domain-His6-GST fusion (human, UniProt P31994 43-217); test: hexamer ELISA
T1 construct: extracellular domain; also called CD32; not shown: glutathione S transferase (GST)
T1 sequence: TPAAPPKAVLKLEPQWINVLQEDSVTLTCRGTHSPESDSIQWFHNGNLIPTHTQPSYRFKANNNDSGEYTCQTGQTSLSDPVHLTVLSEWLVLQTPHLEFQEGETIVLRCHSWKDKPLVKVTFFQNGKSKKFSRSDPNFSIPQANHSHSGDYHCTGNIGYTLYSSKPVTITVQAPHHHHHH

[2] = biological target: T2, human FcγRIIA-Arg131 α subunit extracellular domain-His6-GST fusion (human, UniProt P12318 34-217); test: hexamer ELISA
T2 construct: extracellular domain; also called FcγRIIA-R131; not shown: glutathione S transferase (GST)
T2 sequence: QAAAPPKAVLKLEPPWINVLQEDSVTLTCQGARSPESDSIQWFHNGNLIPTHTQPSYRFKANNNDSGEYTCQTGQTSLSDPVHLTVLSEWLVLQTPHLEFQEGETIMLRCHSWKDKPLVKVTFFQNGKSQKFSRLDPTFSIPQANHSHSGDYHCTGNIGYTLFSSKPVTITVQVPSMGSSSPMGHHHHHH

[3] = biological target: T3, human FcγRIIIA-Phe158 α subunit extracellular domain-His6-GST fusion (human, UniProt P08637 17-208); test: hexamer ELISA
T3 construct: extracellular domain; also called FcγRIIIA-F158; CD16; not shown: glutathione S transferase (GST)
T3 sequence (P08637 other isoform, or with tags, fused parts or gaps): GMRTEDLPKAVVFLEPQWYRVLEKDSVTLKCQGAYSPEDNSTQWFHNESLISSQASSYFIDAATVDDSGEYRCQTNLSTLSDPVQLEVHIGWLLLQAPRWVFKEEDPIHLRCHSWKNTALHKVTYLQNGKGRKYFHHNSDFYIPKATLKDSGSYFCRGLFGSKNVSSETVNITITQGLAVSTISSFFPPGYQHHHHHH

[4] = biological target: T4, human FcγRIIA-H131 α subunit extracellular domain-His6-GST fusion protein (human, UniProt P12318 34-217); test: ELISA; binding ratio on FcγRIIA-H131 divided by that on FcγRIIA-R131
T4 construct: also called FcγRIIA-His131; not shown: glutathione S-transferase (GST)
T4 sequence: T2 sequence with R134H

[5] = biological target: T5, human FcγRIIIA-Val158 with human γ-chain on stably transfected CHO cells (human, UniProt P08637 17-254; P30273 19-86); test: flow cytometry, monomeric IgG on CHO cells with FcγRIIIA-Val158 α- and γ-chains
T5 construct: whole, on cells; CHO cells stably transfected with the α- and γ-chains of the receptor; also called FcγRIIIA-Val158 (cell-based assay); FcγRIIIA-V158
T5 sequence (P08637 17-254 F176V, chain 1 of 2): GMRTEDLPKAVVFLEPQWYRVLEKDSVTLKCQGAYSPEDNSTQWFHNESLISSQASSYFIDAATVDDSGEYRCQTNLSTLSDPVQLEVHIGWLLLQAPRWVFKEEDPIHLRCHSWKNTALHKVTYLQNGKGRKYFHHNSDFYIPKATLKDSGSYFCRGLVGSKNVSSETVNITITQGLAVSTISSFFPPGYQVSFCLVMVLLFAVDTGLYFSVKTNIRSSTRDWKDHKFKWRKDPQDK
T5 sequence (P30273 19-86, chain 2 of 2): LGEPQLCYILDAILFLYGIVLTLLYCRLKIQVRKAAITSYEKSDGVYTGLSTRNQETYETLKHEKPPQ

[6] = biological target: T6, human FcγRIIIA-Val158 α subunit extracellular domain-His6-GST fusion protein (human, UniProt P08637 17-208); test: ELISA format, hexameric complex on FcγRIIIA-Val158
T6 construct: ELISA-format target; also called FcγRIIIA-V158; not shown: glutathione S-transferase (GST)
T6 sequence (P08637 other isoform, or with tags, fused parts or gaps, form in doubt): as the sequence (P08637 other isoform, or with tags, fused parts or gaps) above, with F160V counted along it

[7] = biological target: T7, human FcγRIIIA-Phe158 α subunit extracellular domain-His6-GST fusion protein (human, UniProt P08637 17-208); test: ELISA, IgG:IgE hexamer on coated FcγRIIIA-Phe158-GST; value carried over from Table 6
T7 construct: ELISA-format target; also called FcγRIIIA-F158; not shown: glutathione S-transferase (GST)
T7 sequence (P08637 other isoform, or with tags, fused parts or gaps, form in doubt): as the sequence (P08637 other isoform, or with tags, fused parts or gaps) above

[8] = biological target: T8, human FcγRIIA-R131 α subunit extracellular domain-His6-GST fusion protein (human, UniProt P12318 34-217); test: ELISA, IgG:IgE hexamer on coated FcγRIIA-R131-GST; separate assays run together with the H131 assays
T8 construct: ECD-6His-GST fusion made in 293 cells, coated on the plate; also called FcγRIIA-Arg131; not shown: glutathione S-transferase (GST)
T8 sequence: T2 sequence

[9] = biological target: T8, human FcγRIIA-R131 α subunit …; test: ELISA, IgG:IgE hexamer on coated FcγRIIA-R131-GST; value carried over from Table 6, 7 or 8
[10] = biological target: T7, human FcγRIIIA-Phe158 α subunit …; test: ELISA format, hexameric complex on FcγRIIIA-Phe158; separate assays run together with the Val158 assays
[11] = biological target: T9, human FcγRIIIA-Phe158 with human γ-chain on stably transfected CHO cells (human, UniProt P08637 17-254; P30273 19-86); test: flow cytometry, monomeric IgG on CHO cells with FcγRIIIA-Phe158 α- and γ-chains
T9 construct: whole, on cells; CHO cells stably transfected with the α- and γ-chains of the receptor; also called FcγRIIIA-Phe158 (cell-based assay)
T9 sequence (P08637 17-254, chain 1 of 2): as the sequence (P08637 17-254 F176V, chain 1 of 2) above, with V160F counted along it
T9 sequence (P30273 19-86, chain 2 of 2): as the sequence (P30273 19-86, chain 2 of 2) above
Protocol: CHO cell transfection was carried out using Superfect (Qiagen) according to the manufacturer's instructions. […] Receptor expression levels were determined by staining with anti-FcγRIII monoclonal antibody 3G8 (Medarex). Binding of IgG1 variants was performed by adding monomeric IgG in staining buffer to 5×10^5 cells and incubating in 96 well round-bottom tissue culture plates (Costar, Cambridge, Mass.) at 4° C. for 30 min. Cells were washed three times with staining buffer and IgG binding detected by addition of 1:200 PE-F(ab')_2 fragment of goat anti-human IgG and incubation for 30 min at 4° C. After washing, immunofluorescence staining was analyzed on a FACScan flow cytometer using Cellquest software (Becton Dickinson). Dead cells were excluded from analysis by addition of 1 μg/ml propidium iodide.
For FcγRIIIA, the selected variants were assayed in the ELISA-format as well as on stable-transfected CHO cell lines expressing the γ-chains (FcγRIIIA-Phe158 or FcγRIIIA-Val158) with the associated human α-chain.

[12] = biological target: T4, human FcγRIIA-H131 α subunit …; test: ELISA, IgG:IgE hexamer on coated FcγRIIA-H131-GST
[13] = biological target: T10, human neonatal Fc receptor (FcRn), biotinylated (human, UniProt P55899 24-297; P61769 21-119, biotinylated (biotin-X-NHS)); test: FcRn ELISA, pH 6.0;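 note: Streptavidin-captured FcRn plates, IgG variants titrated 2 h at pH 6.0, peroxidase anti-human IgG read at 450 nm, variant over standard concentration at the standard curve mid-point absorbance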
T10 construct: captured on streptavidin plates
Protocol: FcRn Binding ELISA: For measuring FcRn binding activity of IgG variants, ELISA plates were coated with 2 µg/ml streptavidin (Zymed, South San Francisco) in 50 mM carbonate buffer, pH 9.6, at 4° C. overnight and blocked with PBS-0.5% BSA, pH 7.2 at room temperature for one hour. Biotinylated FcRn (prepared using biotin-X-NHS from Research Organics, Cleveland, Ohio and used at 1–2 µg/ml) in PBS-0.5% BSA, 0.05% polysorbate 20, pH 7.2, was added to the plate and incubated for one hour. Two fold serial dilutions of IgG standard (1.6–100 ng/ml) or variants in PBS-0.5% BSA, 0.05% polysorbate 20, pH 6.0, were added to the plate and incubated for two hours. Bound IgG was detected using peroxidase labeled goat F(ab')_2 anti-human IgG F(ab')_2 in the above pH 6.0 buffer (Jackson ImmunoResearch, West Grove, Pa.) followed by 3,3',5,5'-tetramethyl benzidine (Kirgaard & Perry Laboratories) as the substrate. Plates were washed between steps with PBS-0.05% TWEEN 20® at either pH 7.2 or 6.0. Absorbance was read at 450 nm on a Vmax plate reader (Molecular Devices, Menlo Park, Calif.). Titration curves were fit with a four-parameter nonlinear regression curve-fitting program (KaleidaGraph, Synergy software, Reading, Pa.). Concentrations of IgG variants corresponding to the mid-point absorbance of the titration curve of the standard were calculated and then divided by the concentration of the standard corresponding to the mid-point absorbance of the standard titration curve.

[14] = biological target: T1, human FcγRIIB α subunit extracellular …; test: hexamer ELISA; remark: listed apart in the source
[15] = biological target: T2, human FcγRIIA-Arg131 α subunit …; test: hexamer ELISA; remark: listed apart in the source
[16] = biological target: T3, human FcγRIIIA-Phe158 α subunit …; test: hexamer ELISA; remark: listed apart in the source
[17] = biological target: T1, human FcγRIIB α subunit extracellular …; test: immune complex ELISA, E27 background
[18] = biological target: T2, human FcγRIIA-Arg131 α subunit …; test: immune complex ELISA, E27 background
[19] = biological target: T3, human FcγRIIIA-Phe158 α subunit …; test: immune complex ELISA, E27 background
[20] = biological target: T11, human FcγRIA α subunit extracellular domain-His6-GST fusion (human, UniProt P12314 16-292); test: FcγRI ELISA, E27 background
T11 construct: extracellular domain; also called GST-FcγRIA; CD64; not shown: glutathione S transferase (GST)
T11 sequence (P12314 other isoform, or with tags, fused parts or gaps): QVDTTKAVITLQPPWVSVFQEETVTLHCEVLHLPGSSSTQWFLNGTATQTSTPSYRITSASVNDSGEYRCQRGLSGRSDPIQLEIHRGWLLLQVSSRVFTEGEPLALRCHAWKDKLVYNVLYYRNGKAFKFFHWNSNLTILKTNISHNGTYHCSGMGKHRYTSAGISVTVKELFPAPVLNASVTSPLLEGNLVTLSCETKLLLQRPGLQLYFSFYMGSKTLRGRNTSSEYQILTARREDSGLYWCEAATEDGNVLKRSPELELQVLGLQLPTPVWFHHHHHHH

[21] = biological target: T11, human FcγRIA α subunit extracellular …; test: FcγRI ELISA and THP-1 cells, averaged

B2: anti-IgE E27 IgG1 variant Ser298Ala (antibody)
heavy: not shown
light: DIQLTQSPSSLSASVGDRVTITCRASKPVDGEGDSYLNWYQQKPGKAPKLLIYAASYLESGVPSRFSGSGSGTDFTLTISSLQPEDFATYYCQQSHEDPYTFGQGTKVEIKRTVAAPSVFIFPPSDEQLKSGTASVVCLLNNFYPREAKVQWKVDNALQSGNSQESVTEQDSKDSTYSLSSTLTLSKADYEKHKVYACEVTHQGLSSPVTKSFNRGEC
notes: also called S317A
H131/R131 [4]: 0.93 ratio (H131 value/R131 value)
ratio of binding of the variant to that of native IgG1 [5]: 1.18 ratio (variant/native IgG1)
ratio of binding of the variant to that of native IgG1 [6]: 1.07 ratio (variant/native IgG1)
ratio of binding of the variant to that of native IgG1 [7]: 1.34 ratio (variant/native IgG1)
ratio of binding of the variant to that of native IgG1 [8]: 0.26 ratio (variant/native IgG1)
ratio of binding of the variant to that of native IgG1 [9]: 0.4 ratio (variant/native IgG1)
ratio of binding of the variant to that of native IgG1 [10]: 1.49 ratio (variant/native IgG1)
ratio of binding of the variant to that of native IgG1 [11]: 1.85 ratio (variant/native IgG1)
ratio of binding of the variant to that of native IgG1 [12]: 0.24 ratio (variant/native IgG1)

B3: anti-IgE E27 IgG1 Lys322Ala (antibody)
heavy: not shown
light: B2 light
notes: also called K322A
ratio to native IgG1 [13]: 0.98 ratio
ratio to native IgG1 [14]: 1.28 ratio
ratio to native IgG1 [15]: 1.17 ratio
ratio to native IgG1 [16]: 0.62 ratio
percentage of the wild type [17]: 101%
percentage of the wild type [18]: 109%
percentage of the wild type [19]: 90%
percentage of the wild type [20]: 90%
ratio to native IgG1 [21]: 0.94 ratio

B5: anti-IgE E27 IgG1 Lys414Ala (antibody)
heavy: not shown
light: B2 light
ratio to native IgG1 [13]: 1.02 ratio
ratio to native IgG1 [14]: 0.58 ratio
ratio to native IgG1 [15]: 0.64 ratio
ratio to native IgG1 [16]: 0.82 ratio
reduction in binding against native IgG1 [1]: 40%
reduction in binding against native IgG1 [2]: 40%
ratio to native IgG1 [21]: 1 ratio

B9: anti-IgE E27 IgG1 Gln419 changed to Ala (antibody)
heavy: not shown
light: B2 light
notes: named only by its position
reduction in binding against native IgG1 [1]: 40%
reduction in binding against native IgG1 [2]: 30%

B10: anti-IgE E27 IgG1 Pro329Ala (antibody)
heavy: not shown
light: B2 light
notes: also called P329A
ratio to native IgG1 [13]: 0.8 ratio
ratio to native IgG1 [15]: 0.08 ratio
ratio to native IgG1 [16]: 0.21 ratio
percentage of the wild type [18]: 111%
percentage of the wild type [19]: 85%
percentage of the wild type [20]: 104%
ratio to native IgG1 [21]: 0.48 ratio

B12: anti-IgE E27 IgG1 variant Asp265Ala (antibody)
heavy: not shown
light: B2 light
notes: also called D278A
ratio of binding of the variant to that of native IgG1 [5]: 0.05 ratio (variant/native IgG1)
ratio of binding of the variant to that of native IgG1 [6]: 0.02 ratio (variant/native IgG1)
ratio of binding of the variant to that of native IgG1 [7]: 0.09 ratio (variant/native IgG1)
ratio of binding of the variant to that of native IgG1 [10]: 0.05 ratio (variant/native IgG1)
ratio of binding of the variant to that of native IgG1 [11]: 0.12 ratio (variant/native IgG1)

B13: anti-IgE E27 IgG1 Pro331Ala (antibody)
heavy: not shown
light: B2 light
notes: also called P331A
ratio to native IgG1 [13]: 0.85 ratio
ratio to native IgG1 [14]: 1.34 ratio
ratio to native IgG1 [15]: 1.29 ratio
ratio to native IgG1 [16]: 1.08 ratio
percentage of the wild type [17]: 58%
percentage of the wild type [18]: 86%
percentage of the wild type [19]: 73%
percentage of the wild type [20]: 74%
ratio to native IgG1 [21]: 1.01 ratio

More lines, now with the values ahead:

binding result [1]: no binding
binding result [2]: no binding
binding result [3]: no binding
B1: anti-IgE E27 IgG1 Asp265Asn (antibody)
heavy: not shown
light: B2 light

binding result [1]: no binding
binding result [2]: no binding
binding result [3]: no binding
B4: anti-IgE E27 IgG1 Ser298Asn (antibody)
heavy: not shown
light: B2 light

ratio of binding of the variant to that of native IgG1 [5]: 0.89 ratio (variant/native IgG1)
ratio of binding of the variant to that of native IgG1 [6]: 1.01 ratio (variant/native IgG1)
ratio of binding of the variant to that of native IgG1 [7]: 1.31 ratio (variant/native IgG1)
ratio of binding of the variant to that of native IgG1 [10]: 1.15 ratio (variant/native IgG1)
ratio of binding of the variant to that of native IgG1 [11]: 1.61 ratio (variant/native IgG1)
B6: anti-IgE E27 IgG1 variant Lys290Ala (antibody)
heavy: not shown
light: B2 light
notes: also called K290(307)A; K307A

binding result [1]: no binding
binding result [2]: no binding
binding result [3]: no binding
B7: anti-IgE E27 IgG1 Asp265Glu (antibody)
heavy: not shown
light: B2 light

ratio of binding of the variant to that of native IgG1 [5]: 0.88 ratio (variant/native IgG1)
ratio of binding of the variant to that of native IgG1 [6]: 0.97 ratio (variant/native IgG1)
ratio of binding of the variant to that of native IgG1 [7]: 1.08 ratio (variant/native IgG1)
ratio of binding of the variant to that of native IgG1 [10]: 1 ratio (variant/native IgG1)
ratio of binding of the variant to that of native IgG1 [11]: 0.94 ratio (variant/native IgG1)
B8: anti-IgE E27 IgG1 variant Pro331Ala (antibody)
heavy: not shown
light: B2 light
notes: also called P331(350)A; IG2 65

ratio of binding of the variant to that of native IgG1 [5]: 1.08 ratio (variant/native IgG1)
ratio of binding of the variant to that of native IgG1 [6]: 1.06 ratio (variant/native IgG1)
ratio of binding of the variant to that of native IgG1 [7]: 1.27 ratio (variant/native IgG1)
ratio of binding of the variant to that of native IgG1 [10]: 1.13 ratio (variant/native IgG1)
ratio of binding of the variant to that of native IgG1 [11]: 1.42 ratio (variant/native IgG1)
B11: anti-IgE E27 IgG1 variant Glu333Ala (antibody)
heavy: not shown
light: B2 light
notes: also called E352A

binding result [1]: no binding
binding result [2]: no binding
binding result [3]: no binding
B14: anti-IgE E27 IgG1 Asp270Asn (antibody)
heavy: not shown
light: B2 light

ratio of binding of the variant to that of native IgG1 [5]: 1.26 ratio (variant/native IgG1)
ratio of binding of the variant to that of native IgG1 [6]: 1.1 ratio (variant/native IgG1)
ratio of binding of the variant to that of native IgG1 [7]: 1.39 ratio (variant/native IgG1)
ratio of binding of the variant to that of native IgG1 [10]: 1.39 ratio (variant/native IgG1)
ratio of binding of the variant to that of native IgG1 [11]: 2.46 ratio (variant/native IgG1)
B15: anti-IgE E27 IgG1 variant Lys334Ala (antibody)
heavy: not shown
light: B2 light
notes: also called K353A
